# Experimental data from publication PMC9482650, “Quantitative fragmentomics allow affinity mapping of interactomes” (Nature Communications, 2022).
# T1: ARHGAP21, Q5T5U3
# T1 sequence (Q5T5U3 45-169, limits assumed, looked up): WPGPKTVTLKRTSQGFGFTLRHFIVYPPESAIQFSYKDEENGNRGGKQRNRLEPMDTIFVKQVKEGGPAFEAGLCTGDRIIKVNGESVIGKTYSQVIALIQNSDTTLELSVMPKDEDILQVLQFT
# T2: DFNB31_2, Q9P202
# T2 sequence (Q9P202 274-371, limits assumed, looked up): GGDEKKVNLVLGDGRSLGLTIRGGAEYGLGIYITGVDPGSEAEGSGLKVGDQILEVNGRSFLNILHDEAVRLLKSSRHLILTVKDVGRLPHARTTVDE
# T3: DFNB31_3, Q9P202
# T3 sequence (Q9P202 811-907, limits assumed, looked up): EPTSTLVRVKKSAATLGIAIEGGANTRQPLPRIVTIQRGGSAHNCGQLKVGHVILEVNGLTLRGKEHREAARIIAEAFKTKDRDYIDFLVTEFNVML
# T4: DLG3_2, Q92796
# T4 sequence (Q92796 221-321, limits assumed, looked up): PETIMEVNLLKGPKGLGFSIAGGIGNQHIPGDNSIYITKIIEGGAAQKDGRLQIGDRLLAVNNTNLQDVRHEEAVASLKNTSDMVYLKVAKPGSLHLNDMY
# T5: GRIP1_4, Q9Y3R0
# T5 sequence (Q9Y3R0 467-571, limits assumed, looked up): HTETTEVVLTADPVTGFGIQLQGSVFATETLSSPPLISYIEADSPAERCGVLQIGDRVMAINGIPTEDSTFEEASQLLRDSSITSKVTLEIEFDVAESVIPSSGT
# T6: MPDZ_10, O75970
# T6 sequence (O75970 1624-1722, limits assumed, looked up): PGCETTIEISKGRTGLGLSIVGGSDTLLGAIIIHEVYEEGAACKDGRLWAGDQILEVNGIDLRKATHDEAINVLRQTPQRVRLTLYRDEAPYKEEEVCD
# T7: MPDZ_12, O75970
# T7 sequence (O75970 1857-1958, limits assumed, looked up): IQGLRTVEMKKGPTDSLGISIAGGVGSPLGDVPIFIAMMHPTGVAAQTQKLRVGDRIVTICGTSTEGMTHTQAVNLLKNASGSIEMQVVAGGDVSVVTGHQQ
# T8: MPDZ_5, O75970
# T8 sequence (O75970 695-796, limits assumed, looked up): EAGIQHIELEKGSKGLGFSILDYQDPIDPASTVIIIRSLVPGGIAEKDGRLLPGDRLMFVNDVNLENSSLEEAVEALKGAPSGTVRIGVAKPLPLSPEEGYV
# T9: MPP7, Q5T2T1
# T9 sequence (Q5T2T1 134-230, limits assumed, looked up): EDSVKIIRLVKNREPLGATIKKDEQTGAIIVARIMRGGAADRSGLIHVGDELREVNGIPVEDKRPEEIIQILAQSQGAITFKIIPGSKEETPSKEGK
# T10: PDZD2_2, O15018
# T10 sequence (O15018 329-429, limits assumed, looked up): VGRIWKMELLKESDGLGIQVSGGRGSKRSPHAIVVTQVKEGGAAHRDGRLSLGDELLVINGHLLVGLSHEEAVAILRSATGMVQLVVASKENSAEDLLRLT
# T11: PDZRN3_1, Q9UPQ7
# T11 sequence (Q9UPQ7 244-349, limits assumed, looked up): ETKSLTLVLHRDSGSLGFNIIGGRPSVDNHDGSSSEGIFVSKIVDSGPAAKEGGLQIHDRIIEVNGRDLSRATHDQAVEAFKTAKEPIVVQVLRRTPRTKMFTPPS
# T12: SNTA1, Q13424
# T12 sequence (Q13424 82-180, limits assumed, looked up): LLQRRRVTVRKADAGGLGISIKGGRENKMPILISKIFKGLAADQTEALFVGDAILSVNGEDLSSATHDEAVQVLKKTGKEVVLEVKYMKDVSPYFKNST
# T13: TX1BP3, O14907
# T13 sequence (O14907 10-122, limits assumed, looked up): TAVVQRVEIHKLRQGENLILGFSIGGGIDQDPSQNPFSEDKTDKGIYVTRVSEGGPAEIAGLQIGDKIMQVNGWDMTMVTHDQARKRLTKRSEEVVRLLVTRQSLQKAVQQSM
# Tests used:
# Assay in all cases: holdup assay
# Design in all cases: key: below the threshold = too weak to quantify, mostly under pKd 3.1 to 4
# Conditions in all cases: plain residues with an end cap or a label only (N-terminal biotin on a linker: ado-ado)
# ARHGAP21, Q5T5U3 = target: T1, ARHGAP21, Q5T5U3
# DFNB31_2, Q9P202 = target: T2, DFNB31_2, Q9P202
# DFNB31_3, Q9P202 = target: T3, DFNB31_3, Q9P202
# DLG3_2, Q92796 = target: T4, DLG3_2, Q92796
# FRMPD3, Q5JV73 = target: FRMPD3, Q5JV73
# GRIP1_4, Q9Y3R0 = target: T5, GRIP1_4, Q9Y3R0
# GRIP2_6, Q9C0E4 = target: GRIP2_6, Q9C0E4
# HTRA1, Q92743 = target: HTRA1, Q92743
# IL16_1, Q14005 = target: IL16_1, Q14005
# Inadl_3, Q8NI35 = target: Inadl_3, Q8NI35
# Inadl_4, Q8NI35 = target: Inadl_4, Q8NI35
# LIMK2, P53671 = target: LIMK2, P53671
# MAGI2_2, Q86UL8 = target: MAGI2_2, Q86UL8
# MAGI3_2, Q5TCQ9 = target: MAGI3_2, Q5TCQ9
# MPDZ_10, O75970 = target: T6, MPDZ_10, O75970
# MPDZ_12, O75970 = target: T7, MPDZ_12, O75970
# MPDZ_5, O75970 = target: T8, MPDZ_5, O75970
# MPP7, Q5T2T1 = target: T9, MPP7, Q5T2T1
# PDLIM1, O00151 = target: PDLIM1, O00151
# PDZD2_2, O15018 = target: T10, PDZD2_2, O15018
# PDZRN3_1, Q9UPQ7 = target: T11, PDZRN3_1, Q9UPQ7
# SNTA1, Q13424 = target: T12, SNTA1, Q13424
# TJP1_2, Q07157 = target: TJP1_2, Q07157
# TX1BP3, O14907 = target: T13, TX1BP3, O14907
# Chain of Inadl_4, Q8NI35 (Q8NI35 547-651): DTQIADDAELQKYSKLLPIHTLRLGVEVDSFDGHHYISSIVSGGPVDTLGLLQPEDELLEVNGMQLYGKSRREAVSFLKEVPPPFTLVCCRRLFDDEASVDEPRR
# Chain of Inadl_3, Q8NI35 (Q8NI35 359-469): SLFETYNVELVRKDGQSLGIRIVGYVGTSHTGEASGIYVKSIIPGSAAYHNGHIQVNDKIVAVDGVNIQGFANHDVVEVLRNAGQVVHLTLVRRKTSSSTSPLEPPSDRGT
# Chain of GRIP2_6, Q9C0E4 (Q9C0E4 648-740): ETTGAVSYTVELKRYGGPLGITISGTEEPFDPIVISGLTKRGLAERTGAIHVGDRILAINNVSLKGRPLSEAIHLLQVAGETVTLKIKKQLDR
# Chain of LIMK2, P53671 (P53671 143-248): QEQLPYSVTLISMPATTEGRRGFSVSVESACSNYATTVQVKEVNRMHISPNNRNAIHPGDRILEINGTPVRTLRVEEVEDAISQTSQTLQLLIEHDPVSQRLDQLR
# Chain of PDLIM1, O00151 (O00151 1-87): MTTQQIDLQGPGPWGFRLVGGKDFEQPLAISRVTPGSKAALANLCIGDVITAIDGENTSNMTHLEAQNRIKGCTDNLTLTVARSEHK
# Chain of MAGI2_2, Q86UL8 (Q86UL8 410-522): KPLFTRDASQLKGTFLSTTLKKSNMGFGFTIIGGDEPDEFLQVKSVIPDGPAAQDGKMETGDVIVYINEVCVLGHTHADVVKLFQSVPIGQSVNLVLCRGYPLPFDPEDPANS
# Chain of MAGI3_2, Q5TCQ9 (Q5TCQ9 398-503): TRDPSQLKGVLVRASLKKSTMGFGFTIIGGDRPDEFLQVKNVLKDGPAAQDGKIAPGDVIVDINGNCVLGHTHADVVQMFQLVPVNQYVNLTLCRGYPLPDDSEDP
# Chain of TJP1_2, Q07157 (Q07157 181-274): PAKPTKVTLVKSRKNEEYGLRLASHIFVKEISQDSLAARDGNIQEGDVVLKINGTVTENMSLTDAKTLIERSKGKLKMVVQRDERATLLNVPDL
# Chain of HTRA1, Q92743 (Q92743 360-477): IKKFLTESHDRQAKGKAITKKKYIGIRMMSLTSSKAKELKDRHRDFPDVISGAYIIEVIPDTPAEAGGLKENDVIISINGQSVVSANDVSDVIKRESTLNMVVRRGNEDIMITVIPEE
# Chain of FRMPD3, Q5JV73 (Q5JV73 12-100): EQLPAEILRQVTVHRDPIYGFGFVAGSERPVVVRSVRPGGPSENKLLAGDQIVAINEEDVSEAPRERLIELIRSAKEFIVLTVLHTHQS
# Chain of IL16_1, Q14005 (Q14005 210-306): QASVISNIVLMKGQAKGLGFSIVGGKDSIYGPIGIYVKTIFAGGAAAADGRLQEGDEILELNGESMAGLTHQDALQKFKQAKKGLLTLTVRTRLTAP
"pKd (ARHGAP21, Q5T5U3)","pKd (DFNB31_2, Q9P202)","pKd (DFNB31_3, Q9P202)","pKd (DLG3_2, Q92796)","pKd (FRMPD3, Q5JV73)","pKd (GRIP1_4, Q9Y3R0)","pKd (GRIP2_6, Q9C0E4)","pKd (HTRA1, Q92743)","pKd (IL16_1, Q14005)","pKd (Inadl_3, Q8NI35)","pKd (Inadl_4, Q8NI35)","pKd (LIMK2, P53671)","pKd (MAGI2_2, Q86UL8)","pKd (MAGI3_2, Q5TCQ9)","pKd (MPDZ_10, O75970)","pKd (MPDZ_12, O75970)","pKd (MPDZ_5, O75970)","pKd (MPP7, Q5T2T1)","pKd (PDLIM1, O00151)","pKd (PDZD2_2, O15018)",Binder,other results
3.9,below the threshold,below the threshold,below the threshold,below the threshold,below the threshold,below the threshold,4.17,below the threshold,below the threshold,below the threshold,below the threshold,3.6,below the threshold,below the threshold,below the threshold,below the threshold,below the threshold,below the threshold,4.49,"ARSAAASNYV [CLDN4, O14493]","pKd (PDZRN3_1, Q9UPQ7): below the threshold; pKd (SNTA1, Q13424): 3.63; pKd (TJP1_2, Q07157): below the threshold; pKd (TX1BP3, O14907): below the threshold"
3.8,3.57,below the threshold,5.19,below the threshold,below the threshold,below the threshold,below the threshold,4.97,below the threshold,below the threshold,below the threshold,4.56,5.03,below the threshold,below the threshold,below the threshold,below the threshold,3.71,4.83,"ARGPPRESEV [FAM110D, Q8TAY7]","pKd (PDZRN3_1, Q9UPQ7): 5.07; pKd (SNTA1, Q13424): 5.27; pKd (TJP1_2, Q07157): below the threshold; pKd (TX1BP3, O14907): 5.24"
below the threshold,3.69,4.1,4,below the threshold,below the threshold,below the threshold,below the threshold,3.59,below the threshold,below the threshold,below the threshold,3.86,3.79,3.52,below the threshold,below the threshold,below the threshold,below the threshold,3.75,"PTPDLPQTRV [KLHDC7A, Q5VTJ3]","pKd (PDZRN3_1, Q9UPQ7): 3.53; pKd (SNTA1, Q13424): 4.81; pKd (TJP1_2, Q07157): below the threshold; pKd (TX1BP3, O14907): below the threshold"
